Experimental findings from paper PMC11087509 (2024) are described below.

The target in assay [1] is purified E. coli 30S ribosomal subunit (E. coli (endogenous in MRE600)). The experiment in a line: FP.
In assay [2] the target is T1, purified E. coli 70S ribosome (E. coli (endogenous in BW25113), UniProt P60723 1-201; P61175 1-110; P0ADZ0 1-100; P0A7M6 1-63; P0A7J3 1-165). Kind of assay: FP; competition with cf-Api88.
Assay [3] has as its target T1, purified E. coli 70S ribosome. The experiment in a line: FP; competition with cf-Api88. This is another data set of the same source.
Assay [4] has as its target purified E. coli 50S ribosomal subunit (E. coli (endogenous in MRE600), UniProt P60723 1-201; P61175 1-110; P0ADZ0 1-100; P0A7M6 1-63; P0A7J3 1-165). The experiment in a line: FP.
Assay [5] addresses T1, purified E. coli 70S ribosome. The experiment in a line: FP.

Where no end group is shown, it is not given here. [ ]: non-standard residue; d: D form. Gu = N-terminal tetramethylguanidine; Orn = NCCC[C@H](N)C(=O)O

For the molecule Gu-[Orn](5(6)‑carboxyfluorescein)NNRPVYIPRPRPPHPRL-NH2 [cf-Api88 (5(6)-carboxyfluorescein-labeled Api88, Gu-ONNRPVYIPRPRPPHPRL-NH2)], in assay [1], the dissociation constant Kd is 14.3 µM.

With Gu-[Orn](5(6)‑carboxyfluorescein)NNRPVYIPRPRPPHPRL-OH [cf-Api137 (5(6)-carboxyfluorescein-labeled Api137, Gu-ONNRPVYIPRPRPPHPRL-OH)], the equilibrium dissociation constant (Kd) in assay [1] came to 20.2 µM.

VDKPPYLPRPRPPR[dR]IYN[dR]-NH2 [Onc112 (VDKPPYLPRPRPPRrIYNr-NH2)]: in assay [2], the concentration for half-maximal inhibition (IC50) stood at 9.8 µM. For the same molecule, the affinity in assay [3] corresponds to a Ki of 1.87 µM.

Consider {5(6)‑carboxyfluorescein}-VDKPPYLPRPRPPR[dR]IYN[dR]-NH2 [cf-Onc112 (5(6)-carboxyfluorescein-labeled Onc112, VDKPPYLPRPRPPRrIYNr-NH2)], for which the Kd in assay [1] worked out at 1.14 µM; in assay [4] it was 0.05 µM; in assay [5], 0.06 µM.

On to Gu-[Orn]NNRPVYIPRPRPPHPRL-NH2 [Api88 (Gu-ONNRPVYIPRPRPPHPRL-NH2)], for which, in assay [2], the IC50 turned out to be 12.8 µM. In assay [3], this molecule yielded a Ki of 2.45 µM.

As to Gu-[Orn]NNRPVYIPRPRPPHPRL-OH [Api137 (Gu-ONNRPVYIPRPRPPHPRL-OH)], the IC50 in assay [2] was 15.9 µM. In assay [3], this molecule came in with a Ki of 3.03 µM.

As a reminder, the Kd is a measure of binding affinity in units of concentration. High values mean a looser complex, low ones a tighter complex. Usually IC50 stands for the concentration needed to halve the response being measured. A word on the Ki: it is the dissociation constant of the complex between target and ligand, obtained from inhibition or displacement. A lower Ki goes with tighter binding.
